Test results: paper PMC8559791
Where a chain is given by its changes, count along the chain named. Names may count otherwise.

B1: GsPutA (Geobacter sulfurreducens PCA) (protein)
chain: MLNSELNTKIVNRGKEFFGSISGEKPSLFNKGAWMGKAMDWSMQNEQFKIQMFRFVDVFPSLTTSKLLTEHIREYFGNEQDMPAFMSTGAKVAGMLGSFGGAVLNKVLTSNIEEMARQFIVGETTKEAVKNLEKLRKDGFAAVVDVLGEATLSEEEAEVYTNTYLELLEALKKEQGSWKGLPGKGGDPGLDWGHAPKVNIAVKPTALFCLANPQDFEGSVVAILDRMRRIFKKVMELNGFLCIDMESYRHKEIILEVFRRLKLEYRDYPHLGIVLQAYLKDNDKDLDDLLAWAKEHKVQISVRLVKGAYWDYETVKAKQNDWEVPVWTIKAESDAAYERQARKILENHQICHFACASHNIRTISAVMEMARELNVPEDRYEFQVLYGMAEPVRKGILKVAGRIRLYAPYGNMVPGMGYLVRRLLENTANESFLRQSFAEDAQIERLLEDPAVTVERERAARAAKPKKERKGLGGLPPFNNEAMVDFTRADHRAAFPKHIAQVRTQLGKTYPLFINGKEVRTNDLIPTVNPNKPSEVLGQICQAGTTEVGDAIAAAKAAFPAWRDTDPRTRAEYLLKAAQAARKRLFELSAWQVLEIGKQWDQAYADVTEAIDFLEYYAREMIRLGQPQRVGHAPGELNHYFYEPKGVAAVIAPWNFPLAISMGMASAAIVTGNCVVFKPSGITSIIGWHLVELFREAGLPEGVFNFTPGRGSVMGDYLVDHPDISLIAFTGSMETGLRIIERAAKVHPGQANVKKIISEMGGKNAIIIDDDADLDEAVPHVLYSAFGFQGQKCSACSRVIVLDAVYDKFIERLVSMAKATKVGPSEDPANYMGAVADDKAMKSIKEYAEIGKREGHVLYESPVPAGEGYFVPMTIIGGIKPEHRIAQEEIFGPVLAVMRAKDFDQAIEWANSTQFALTGGIFSRSPEHLAKARREFRVGNLYINRNNTGALVERQPFGGARMSGVGTKAGGPDYLLHFMDPRVVTENTMRRGFAPIEEDDDWVD
B2: GsPutA (Geobacter sulfurreducens PCA; A206W) (protein)
chain: B1 chain with A206W

Substrate: O=C(O)[C@@H]1CCC=N1
Test: purified protein
Type: biochemical, Geobacter sulfurreducens
Conditions: GSALDH site; NAD+ fixed at saturating concentration; L-P5C 0-3.5 mM

Row | Protein | Km [µM] | kcat [s⁻¹]
1 | B1 | 30.0 ± 13.0 | 4.7 ± 0.2
2 | B2 | 65.0 ± 18.3 | 6.0 ± 0.2
